Data: patent US20250026852A1 (Chugai, published 2025)

T1: human CD3ed-Fc (human)
T1 construct: Biotinylated in culture by BirA; also called biotin-labeled protein containing human CD3 epsilon and human CD3 delta linked to a human antibody constant region; CD3 heterodimer fused with the antibody constant region
T1 chain 1: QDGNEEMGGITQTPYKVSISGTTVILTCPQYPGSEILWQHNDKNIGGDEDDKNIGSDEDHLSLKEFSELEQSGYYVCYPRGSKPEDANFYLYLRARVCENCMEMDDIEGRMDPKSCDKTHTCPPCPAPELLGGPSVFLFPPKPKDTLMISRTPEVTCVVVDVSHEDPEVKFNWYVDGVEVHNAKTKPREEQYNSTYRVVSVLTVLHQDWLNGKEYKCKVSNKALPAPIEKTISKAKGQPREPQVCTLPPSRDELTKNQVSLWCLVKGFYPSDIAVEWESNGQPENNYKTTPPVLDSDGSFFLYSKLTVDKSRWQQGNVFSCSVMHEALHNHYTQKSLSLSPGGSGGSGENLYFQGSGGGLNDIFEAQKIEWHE
T1 chain 2: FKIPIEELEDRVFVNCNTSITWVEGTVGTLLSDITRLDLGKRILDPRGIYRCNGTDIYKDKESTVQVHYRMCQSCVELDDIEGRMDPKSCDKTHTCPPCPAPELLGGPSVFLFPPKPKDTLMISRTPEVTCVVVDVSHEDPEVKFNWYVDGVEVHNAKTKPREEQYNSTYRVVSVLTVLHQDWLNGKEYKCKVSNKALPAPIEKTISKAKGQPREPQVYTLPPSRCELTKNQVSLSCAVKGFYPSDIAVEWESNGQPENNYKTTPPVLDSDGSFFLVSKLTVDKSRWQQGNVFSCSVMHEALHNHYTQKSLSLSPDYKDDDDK


Key:
20A11-G1m/VK2-28-k0MT = target: T2, 20A11-G1m/VK2-28-k0MT; test: BLI (Octet), in the same way as in Example 3
T2 construct: IgG antibody-like molecule; VHH 20A11 in place of VH
T2 sequence (heavy, as listed by the source, chain 1 of 2): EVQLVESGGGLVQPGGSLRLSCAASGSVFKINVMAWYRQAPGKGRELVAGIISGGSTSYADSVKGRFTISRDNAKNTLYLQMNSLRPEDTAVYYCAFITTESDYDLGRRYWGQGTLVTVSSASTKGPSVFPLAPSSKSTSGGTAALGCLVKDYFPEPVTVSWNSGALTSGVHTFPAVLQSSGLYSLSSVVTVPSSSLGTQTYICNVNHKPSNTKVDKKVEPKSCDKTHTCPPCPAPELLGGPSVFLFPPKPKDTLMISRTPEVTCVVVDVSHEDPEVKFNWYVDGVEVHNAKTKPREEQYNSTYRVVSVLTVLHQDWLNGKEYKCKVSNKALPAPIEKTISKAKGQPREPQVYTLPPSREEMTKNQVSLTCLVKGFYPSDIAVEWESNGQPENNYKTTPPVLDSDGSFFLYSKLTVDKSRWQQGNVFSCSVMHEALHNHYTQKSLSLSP
T2 sequence (light, as listed by the source, chain 2 of 2): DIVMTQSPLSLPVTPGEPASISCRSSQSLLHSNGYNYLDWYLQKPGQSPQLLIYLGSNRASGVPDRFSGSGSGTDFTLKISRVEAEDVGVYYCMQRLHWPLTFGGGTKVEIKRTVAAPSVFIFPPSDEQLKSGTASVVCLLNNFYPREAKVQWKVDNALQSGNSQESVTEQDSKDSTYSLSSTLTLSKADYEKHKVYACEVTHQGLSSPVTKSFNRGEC

20A11hu-G1m/VK2-28-k0MT = target: T3, 20A11hu-G1m/VK2-28-k0MT (Homo sapiens (Human), UniProt P0DOX5 2-447 = IgG part); test: BLI (Octet), in the same way as in Example 3, 30 C or 25 C
T3 construct: IgG antibody-like molecule; VHH 20A11hu in place of VH
T3 sequence (P0DOX5 other isoform, or with tags, fused parts or gaps, chain 1 of 2): as the sequence (heavy, as listed by the source, chain 1 of 2) above, with Y37V, R45L, L47W counted along it
T3 sequence (light, as listed by the source, chain 2 of 2): as the sequence (light, as listed by the source, chain 2 of 2) above
Protocol: Next, the IL-6R binding evaluation of VHH released by protease treatment was conducted at 30° C. or 25° C. in the same way as in Example 3.

IL6R90-G1m/lamL = target: T4, IL6R90-G1m/lamL (Homo sapiens (Human), UniProt P0DOY2 1-106); test: BLI (Octet HTX), molecule captured on Protein A biosensor, hsIL-6R as analyte, 30 C
T4 construct: IgG antibody-like molecule; VHH IL6R90 in place of VH
Protocol: (§1) The hsIL-6R binding evaluation of each molecule was conducted using Octet HTX (Pall ForteBio Corp.). Specifically, each molecule was allowed to bind to Biosensor/Protein A (ProA) (Pall ForteBio Corp., 18-5013), and hsIL-6R was allowed to act thereon, followed by binding evaluation at 30° C.

IL6R90-G1m/VK2-28-k0MT = target: T5, IL6R90-G1m/VK2-28-k0MT; test: as above
T5 construct: IgG antibody-like molecule; VHH IL6R90 in place of VH
T5 sequence (light, as listed by the source, chain 2 of 2, other chains not shown): as the sequence (light, as listed by the source, chain 2 of 2) above
Protocol: as §1

human CD3ed-Fc [1] = target: T1, human CD3ed-Fc; test: phage display: ELISA / panning of the immunized-alpaca VHH library (Example 5-1 or 5-2)
human CD3ed-Fc [2] = target: T1, human CD3ed-Fc; test: BLI (Octet RED), human CD3ed-Fc on the sensor, protease-treated molecule as analyte
Protocol: The protease concentration was set to 25 nM, and Octet RED (Pall ForteBio Corp.) was used in the assay.
Next, the CD3 binding evaluation of VHH released by protease treatment was conducted in the same way as in Example 3.

Row | Binder | binding result (human CD3ed-Fc [1]) | binding result (human CD3ed-Fc [2]) | other results
1 | soluble human IL-6R (receptor, also called hsIL-6R; recombinant human IL-6R) LAPRRCPAQEVARGVLTSLPGDSVTLTCPGVEPEDNATVHWVLRKPAAGSHPSRWAGMGRRLLLRSVQLHDSGNYSCYRAGRPAGTVHLLVDVPPEEPQLSCFRKSPLSNVVCEWGPRSTPSLTTKAVLLVRKFQNSPAEDFQEPCQYSQESQKFSCQLAVPEGDSSFYIVSMCVASSVGSKFSKTQTFQGCGILQPDPPANITVTAVARNPRWLSVTWQDPHSWNSSFYRLRFELRYRAERSKTFTTWMVKDLQHHCVIHDAWSGLRHVVQLRAQEEFGQGEWSEWSPEAMGTPWTESRSPPAENEVSTPMQALTTNKDDDNILFRDSANATSLPVQ | – | – | binding result (20A11-G1m/VK2-28-k0MT): binds; binding result (20A11hu-G1m/VK2-28-k0MT): no binding; binding result (IL6R90-G1m/lamL): binds; binding result (IL6R90-G1m/VK2-28-k0MT): no binding
2 | bC3edL1R1N164H01 (VHH) VHH: QVQLVESGGGLVQPGGSLRLSCAASGFTFDVYGMSWVRHSPGKGLEWVSTINWNGGSTYYAESMKGRFTISRDNAKNTVYLQMNSLKPEDTAVYYCAKFAPWDGDMEWGQGTQVTVSG | binds | – | –
3 | bC3edL1R1N160H01-G1mISHI01/VK1-39-k0MT after protease (MT-SP1) treatment (VHH, also called released VHH; not shown: residues of the protease cleavage site left at the C terminus) VHH: QVQLVESGGGLVQPGGSLRLSCAASGFTFNHCWMYWVRQAPGKGLEWVSVINTDGGSAYYADSVKGRFTISRDNAKNTLYLQMNSLKSEDTAVYYCARDWAPLVDYYYGMDYWGKGTLVTVSG | – | binds | –
4 | bC3edL1R1N161H01-G1mISHI01/VK1-39-k0MT after protease (MT-SP1) treatment (VHH, also called released VHH; not shown: residues of the protease cleavage site left at the C terminus) VHH: QVQLVESGGGLVQPGGSLRLSCAASGFPFDNYVMSWVRQAPGKGLEWISAISWNGGSTYYAESMKGRFTISRDNAKSTLYLQMNSLKSEDTAVYYCAKEPRVYYSGSPDYWGQGTQVTVSG | – | binds | –

Now from value to binder, other results behind:

Row | binding result (human CD3ed-Fc [1]) | binding result (human CD3ed-Fc [2]) | Binder | other results
5 | – | binds | bC3edL1R1N164H01-G1mISHI01/VK1-39-k0MT after protease (MT-SP1) treatment (VHH, also called released VHH; not shown: residues of the protease cleavage site left at the C terminus) VHH: QVQLVESGGGLVQPGGSLRLSCAASGFTFDVYGMSWVRHSPGKGLEWVSTINWNGGSTYYAESMKGRFTISRDNAKNTVYLQMNSLKPEDTAVYYCAKFAPWDGDMEWGQGTQVTVSG | –
6 | binds | – | bC3edL1R1N160H01 (VHH) VHH: QVQLVESGGGLVQPGGSLRLSCAASGFTFNHCWMYWVRQAPGKGLEWVSVINTDGGSAYYADSVKGRFTISRDNAKNTLYLQMNSLKSEDTAVYYCARDWAPLVDYYYGMDYWGKGTLVTVSG | –
7 | binds | – | bC3edL1R1N161H01 (VHH) VHH: QVQLVESGGGLVQPGGSLRLSCAASGFPFDNYVMSWVRQAPGKGLEWISAISWNGGSTYYAESMKGRFTISRDNAKSTLYLQMNSLKSEDTAVYYCAKEPRVYYSGSPDYWGQGTQVTVSG | –
